Test results: paper PMC7697860
Like-named read-outs stand apart in the source and are kept apart here.

Assays:
[1] = molecular target: GST-PfPV1 (wheat germ cell-free expression) (Plasmodium falciparum 3D7); experiment: SPR; […] (amine coupling), […]; Biacore X100, single-cycle kinetics, 1:1; HBS-EP+ (10 mM HEPES pH 7.4, 150 mM NaCl, 3 mM EDTA, 0.05% P20)
[2] = molecular target: GST-PfPV1 (wheat germ cell-free expression) (Plasmodium falciparum 3D7); experiment: as above; remark: listed apart in the source

Question: Which Kd [1] does the source give for GST-EXP2 (natural protein) here?
Answer: Its Kd is 110 nM.

Question: And the koff [1]?
Answer: Its koff is 0.000989 s⁻¹.

Question: And the kon [1]?
Answer: The kon was 9030 M⁻¹ s⁻¹.

Question: Which Kd [1] does the source give for GST-HSP101 (natural protein) here?
Answer: Its Kd is 10.5 nM.

Question: And the koff [1]?
Answer: The koff was 0.000914 s⁻¹.

Question: What about the kon [1] of the same substance?
Answer: The kon was 87000 M⁻¹ s⁻¹.

Question: With GST-PTEX150 (natural protein) as the substance, how does the Kd [1] read?
Answer: Its Kd is 54.5 nM.

Question: What about the koff [1] of the same substance?
Answer: Its koff is 0.00204 s⁻¹.

Question: What about the kon [1] of the same substance?
Answer: Its kon is 37300 M⁻¹ s⁻¹.

Question: What about the Kd [2] of the same substance?
Answer: The Kd was 54.6 nM.
